The target in the experiment is T1, soluble EPCR ECD (truncated after Ser210) (Homo sapiens, UniProt Q9UNN8).
T1 chain: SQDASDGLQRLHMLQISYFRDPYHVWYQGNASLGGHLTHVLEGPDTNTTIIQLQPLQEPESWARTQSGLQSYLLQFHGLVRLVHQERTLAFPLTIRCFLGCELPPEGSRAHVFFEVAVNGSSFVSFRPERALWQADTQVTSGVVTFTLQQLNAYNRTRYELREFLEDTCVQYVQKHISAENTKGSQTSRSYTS
In words: solid-phase plate binding assay.

B1: activated protein C (protein)
chain 1: ANSFLEELRHSSLERECIEEICDFEEAKEIFQNVDDTLAFWSKHVDGDQCLVLPLEHPCASLCCGHGTCIDGIGSFSCDCRSGWEGRFCQREVSFLNCSLDNGGCTHYCLEEVGWRRCSCAPGYKLGDDLLQCHPAVKFPCGRPWKRMEKKRSHL
chain 2: LIDGKMTRRGDSPWQVVLLDSKKKLACGAVLIHPSWVLTAAHCMDESKKLLVRLGEYDLRRWEKWELDLDIKEVFVHPNYSKSTTDNDIALLHLAQPATLSQTIVPICLPDSGLAERELNQAGQETLVTGWGYHSSREKEAKRNRTFVLNFIKIPVVPHNECSEVMSNMVSENMLCAGILGDRQDACEGDSGGPMVASFHGTWFLVGLVSWGEGCGLLHNYGVYTKVSRYLDWIHGHIRDKEAPQKSWAP
modifications: APC biotinylated with biotin-FPR-chloromethylketone, Ca2+ and Mg2+
In general, Kd refers to the constant that tells how readily two partners part at equilibrium. On to B1, for which binding was characterised by a dissociation constant (Kd) of 24 nM.

Source of the values: PMC5053618 (2016).
